B1: full-length Mdm36 (residues 1-579) (natural protein, Saccharomyces cerevisiae, UniProt Q06820 1-579, looked up)
chain: MDENGTVKPGYELKGLNSGNSRSNMDKDPIVSKFHRAGLNDSADEEDTDINGNRNTSWITSMISEEKRKVEGKSMLNDEEDLHLSKATLNKCDALVKILADIIKLEFVIHQSWYIRSLHKSVLIQFEVETSGGNKNSAGDSGDDDDDNHNGNLDDSFYKDLSLKCIKKCEKSSLALESLSRDIDQIRDFIMSNTIEDNRVDRLLQNSMTLLLECWIYSMKRLRRLRMKIAGIFVRSKLLLIDHELVTIWHFLQEQNEHETVNNENELKLAETIKSYRAFIKIFIQQLEDSESGSPSSSLFEECLHVFLDIESMYNSLNLNWLLNENKALQERLLSPSSTSENDHTNNLPVIDETKEIEDISSFVNSIVDASMLTHDLTPINSSDSDNLSNGEIDRLDGRRLSSSTSDMSLMMQRTSLQKQLPSLLTAFNNARRLEQELQNACKVNDNKHSTKDTDSNIRRNEHAMSSSVSSIISQNSTLASPSPPMSSSFISTAPSQSSSRMSTLPLSPSSSLLESQSQTLKNNMSQWLNQSRSGLNGTKLIPTNHIGFHSNVLNTLYGIGGGPVSKSYKSNQPSSQNT

Columns and labels:
SEC-MALS = target: the molecule itself; test: SEC-MALS
[1] = target: B1; test: SEC
[2] = target: B1; test: ITC

binding result [1] | Kd [2] [nM] | stoichiometry N [2] | Binder | stoichiometry N (SEC-MALS)
– | – | – | B1 | 2
binds | – | – | Num1 (97-195), N-terminal half of Num1CC (domain or fragment, Saccharomyces cerevisiae, UniProt Q00402 97-195, looked up) MNFTLELSENLLVECRKLQSSNEAKNEQIKSLKQIKESLSDKIEELTNQKKSFMKELDSTKDLNWDLESKLTNLSMECRQLKELKKKTEKSWNDEKESL | –
– | 121 | 1 Num1CC per Mdm36 (1:1) | coiled-coil domain of Num1 (residues 97-294) (domain or fragment, Saccharomyces cerevisiae, UniProt Q00402 97-294, looked up) MNFTLELSENLLVECRKLQSSNEAKNEQIKSLKQIKESLSDKIEELTNQKKSFMKELDSTKDLNWDLESKLTNLSMECRQLKELKKKTEKSWNDEKESLKLLKTDLEILTLTKNGMENDLSSQKLHYDKEISELKERILDLNNENDRLLISVSDLTSEINSLQSNRTERIKIQKQLDDAKASISSLKRKVQKKYYQKQ | 2
binds | – | – | Num1 (97-175) (domain or fragment, Saccharomyces cerevisiae, UniProt Q00402 97-175, looked up) MNFTLELSENLLVECRKLQSSNEAKNEQIKSLKQIKESLSDKIEELTNQKKSFMKELDSTKDLNWDLESKLTNLSMECR | –

— article PMC8112169 (Molecules and Cells, 2021)
